Usually remaining activity stands for the share of the control activity or signal that is left under treatment. A word on the Km: it is the concentration of substrate that gives half-maximal velocity. One may read the kcat as the maximal rate divided by the concentration of active sites.

In data set [1] the target is T1, AmRha (Aspergillus mulundensis, UniProt A0A3D8R006).
T1 construct: gene DSM5745_09107; full-length synthetic gene (2589 bp, 862 aa); native-like purification (ammonium sulphate, DEAE)
T1 sequence (A0A3D8R006 1-862): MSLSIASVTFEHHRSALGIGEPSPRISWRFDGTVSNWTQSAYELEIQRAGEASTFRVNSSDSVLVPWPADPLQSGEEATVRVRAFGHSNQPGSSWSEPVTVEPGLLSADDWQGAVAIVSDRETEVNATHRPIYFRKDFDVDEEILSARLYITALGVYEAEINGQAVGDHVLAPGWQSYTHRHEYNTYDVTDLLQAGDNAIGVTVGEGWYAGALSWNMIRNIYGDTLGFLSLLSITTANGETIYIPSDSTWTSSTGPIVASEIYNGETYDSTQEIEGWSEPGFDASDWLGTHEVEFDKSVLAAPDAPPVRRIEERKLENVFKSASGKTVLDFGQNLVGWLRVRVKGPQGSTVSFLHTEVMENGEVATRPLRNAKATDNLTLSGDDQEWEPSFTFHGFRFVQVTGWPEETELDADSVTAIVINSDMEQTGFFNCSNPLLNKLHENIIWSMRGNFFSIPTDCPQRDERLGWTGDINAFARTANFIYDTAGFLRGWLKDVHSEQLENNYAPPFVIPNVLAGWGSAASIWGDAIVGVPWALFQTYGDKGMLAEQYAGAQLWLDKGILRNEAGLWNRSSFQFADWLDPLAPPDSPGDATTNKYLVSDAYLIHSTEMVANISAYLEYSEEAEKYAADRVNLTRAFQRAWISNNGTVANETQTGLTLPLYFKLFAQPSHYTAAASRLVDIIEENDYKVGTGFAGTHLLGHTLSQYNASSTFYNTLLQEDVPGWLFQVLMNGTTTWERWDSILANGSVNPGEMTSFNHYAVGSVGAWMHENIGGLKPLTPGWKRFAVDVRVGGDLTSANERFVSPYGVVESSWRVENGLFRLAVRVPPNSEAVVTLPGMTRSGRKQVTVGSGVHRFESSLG
The data set is described as follows: residual activity on pNPR, […] nm. Format: biochemical. As to conditions: read-out: remaining enzyme activity at 5 mM.

Substrate in data set [2]: COc1ccc(-c2oc3c(CC=C(C)C)c(O[C@@H]4O[C@H](CO)[C@@H](O)[C@H](O)[C@H]4O)cc(O)c3c(=O)c2O[C@@H]2O[C@@H](C)[C@H](O)[C@@H](O)[C@H]2O[C@@H]2O[C@@H](C)[C@H](O)[C@@H](O)[C@H]2O)cc1
The data set is described as follows: purified protein. As to conditions: hydrolysis of terminal alpha-1,2-rhamnose to icariin; kinetic conditions not stated.

Substrate in data set [3]: C[C@@H]1O[C@@H](Oc2ccc([N+](=O)[O-])cc2)[C@H](O)[C@H](O)[C@H]1O
As to the kind of experiment: purified protein. Format: biochemical, Aspergillus mulundensis. The note with it: pH 5.5, 65 °C, 50 mM sodium phosphate.

As for `C[C@@H]1OC(O)[C@H](O)[C@H](O)[C@H]1O` (stereo partly drawn) [L-rhamnose], the remaining activity at 5000 µM in data set [1] was found to be 49.7%.

B1: AmRha (Aspergillus mulundensis) (protein)
chain: T1 sequence (A0A3D8R006 1-862)
notes: full-length synthetic gene (2589 bp, 862 aa); native-like purification (ammonium sulphate, DEAE)
For the molecule B1, in data set [2], the Km amounted to 6.96 mM and the kcat worked out at 37.11 s⁻¹. Moreover, in data set [3], the Km is reported as 0.30 mM and the kcat stood at 900.34 s⁻¹.
